The chains are these.
B1: GST-CBL47–435 M222F (domain or fragment)
chain: PPGTVDKKMVEKCWKLMDKVVRLCQNPKLALKNSPPYILDLLPDTYQHLRTILSRYEGKMETLGENEYFRVFMENLMKKTKQTISLFKEGKERMYEENSQPRRNLTKLSLIFSHMLAELKGIFPSGLFQGDTFRITKADAAEFWRKAFGEKTIVPWKSFRQALHEVHPISSGLEAFALKSTIDLTCNDYISVFEFDIFTRLFQPWSSLLRNWNSLAVTHPGYMAFLTYDEVKARLQKFIHKPGSYIFRLSCTRLGQWAIGYVTADGNILQTIPHNKPLFQALIDGFREGFYLFPDGRNQNPDLTGLCEPTPQDHIKVTQEQYELYCEMGSTFQLCKICAENDKDVKIEPCGHLMCTSCLTSWQESEGQGCPFCRCEIKGTEPIVVDPFD
B2: GST-CBL47–435 Y368F pY371 V431A (domain or fragment)
chain: PPGTVDKKMVEKCWKLMDKVVRLCQNPKLALKNSPPYILDLLPDTYQHLRTILSRYEGKMETLGENEYFRVFMENLMKKTKQTISLFKEGKERMYEENSQPRRNLTKLSLIFSHMLAELKGIFPSGLFQGDTFRITKADAAEFWRKAFGEKTIVPWKSFRQALHEVHPISSGLEAMALKSTIDLTCNDYISVFEFDIFTRLFQPWSSLLRNWNSLAVTHPGYMAFLTYDEVKARLQKFIHKPGSYIFRLSCTRLGQWAIGYVTADGNILQTIPHNKPLFQALIDGFREGFYLFPDGRNQNPDLTGLCEPTPQDHIKVTQEQFELYCEMGSTFQLCKICAENDKDVKIEPCGHLMCTSCLTSWQESEGQGCPFCRCEIKGTEPIVADPFD
modifications: phosphotyrosine at 371
B3: GST-CBL354–435 Y368F pY371 (domain or fragment)
chain: EPTPQDHIKVTQEQFELYCEMGSTFQLCKICAENDKDVKIEPCGHLMCTSCLTSWQESEGQGCPFCRCEIKGTEPIVVDPFD
modifications: phosphotyrosine at 371
B4: GST-CBL354–435 Y368F (domain or fragment)
chain: EPTPQDHIKVTQEQFELYCEMGSTFQLCKICAENDKDVKIEPCGHLMCTSCLTSWQESEGQGCPFCRCEIKGTEPIVVDPFD
B5: GST-CBL354–435 pY371 (domain or fragment)
chain: EPTPQDHIKVTQEQYELYCEMGSTFQLCKICAENDKDVKIEPCGHLMCTSCLTSWQESEGQGCPFCRCEIKGTEPIVVDPFD
modifications: phosphotyrosine at 371
B6: GST-CBL47–435 Y368F pY371 K389A (domain or fragment)
chain: PPGTVDKKMVEKCWKLMDKVVRLCQNPKLALKNSPPYILDLLPDTYQHLRTILSRYEGKMETLGENEYFRVFMENLMKKTKQTISLFKEGKERMYEENSQPRRNLTKLSLIFSHMLAELKGIFPSGLFQGDTFRITKADAAEFWRKAFGEKTIVPWKSFRQALHEVHPISSGLEAMALKSTIDLTCNDYISVFEFDIFTRLFQPWSSLLRNWNSLAVTHPGYMAFLTYDEVKARLQKFIHKPGSYIFRLSCTRLGQWAIGYVTADGNILQTIPHNKPLFQALIDGFREGFYLFPDGRNQNPDLTGLCEPTPQDHIKVTQEQFELYCEMGSTFQLCKICAENDADVKIEPCGHLMCTSCLTSWQESEGQGCPFCRCEIKGTEPIVVDPFD
modifications: phosphotyrosine at 371
B7: GST-CBL354–435 WT (domain or fragment)
chain: EPTPQDHIKVTQEQYELYCEMGSTFQLCKICAENDKDVKIEPCGHLMCTSCLTSWQESEGQGCPFCRCEIKGTEPIVVDPFD
B8: GST-CBL354–435 Y371F (domain or fragment)
chain: EPTPQDHIKVTQEQYELFCEMGSTFQLCKICAENDKDVKIEPCGHLMCTSCLTSWQESEGQGCPFCRCEIKGTEPIVVDPFD

Results on eight molecules are retold here after article PMC3880865 (Nature structural & molecular biology, 2012).

For the test, the target named is UbcH5B (UniProt P62837 1-147). The experiment in a line: SPR.
Usually Kd stands for the concentration at which binding is half-saturated. High values mean lower affinity, low ones higher affinity. B1 yielded a Kd of 320 µM.

B2: the Kd was determined as 43 µM. For B3 the value was 18 µM; for B4, 38 µM. In turn, B5 showed a Kd of 20 µM. For B6 the value was 81 µM; for B7, 42 µM; for B8, 50 µM.
